Experimental data: article PMC4838890, “Dynamic and flexible H3K9me3 bridging via HP1β dimerization establishes a plastic state of condensed chromatin” (Nature Communications, 2016)

Columns and labels:
HP1β (Homo sapiens) = HP1β (Homo sapiens) (UniProt P83916); conditions: cited from earlier work
[1] = target: H3K9me3 oligonucleosomes (12-mer oligonucleosomal arrays) (Xenopus laevis); assay: co-sedimentation; chromatin coprecipitation with oligonucleosomes reconstituted to different saturation (0.8:1.0, 1.0:1.0, 1.0:1.2 octamers to positioning sequences); saturating protein concentrations; Coomassie bands quantified in relation to input
[2] = target: H3KC9me3 mononucleosome (Xenopus laevis); assay: ITC; 1.8 mM hHP1β injected into 60 μM H3 peptides, nucleosomes or oligonucleosomal arrays; 25°C; 10 mM triethanolamine pH 7.5, 20 mM NaCl, 0.1 mM EDTA; apparent; one set of identical sites
[3] = target: free H3K9me3 tail peptide; assay: as above
[4] = target: H3KC9me3 mononucleosome (Xenopus laevis); assay: ITC; 1.8 mM hHP1β injected into 60 μM H3 peptides, nucleosomes or oligonucleosomal arrays; 25°C; 10 mM triethanolamine pH 7.5, 150 mM NaCl, 0.1 mM EDTA; apparent; one set of identical sites
[5] = target: H3KC9me3 oligonucleosomes (12-mer oligonucleosomal arrays) (Xenopus laevis); assay: as above
[6] = target: free H3K9me3 tail peptide; assay: as above
[7] = target: H3K9me3 mononucleosome (Xenopus laevis); assay: SPR; biotinylated ligands on streptavidin (SA) chips, hHP1β proteins injected; 298 K; 10 mM triethanolamine pH 7.5, 150 mM NaCl, 0.1 mM EDTA, 1 mM DTT, 0.005% Tween-20; steady-state analysis; apparent
[8] = target: H3K9me3 oligonucleosomes (12-mer oligonucleosomal arrays) (Xenopus laevis)
H3KC9me3 tail peptide [9] = assay: ITC; 1.8 mM hHP1β injected into 60 μM H3 peptides, nucleosomes or oligonucleosomal arrays; 25°C; 10 mM triethanolamine pH 7.5, 20 mM NaCl, 0.1 mM EDTA; apparent; one set of identical sites
H3KC9me3 tail peptide [10] = assay: ITC; 1.8 mM hHP1β injected into 60 μM H3 peptides, nucleosomes or oligonucleosomal arrays; 25°C; 10 mM triethanolamine pH 7.5, 150 mM NaCl, 0.1 mM EDTA; apparent; one set of identical sites

human HP1β wild type (hHP1β WT), sequence (P83916 whole entry): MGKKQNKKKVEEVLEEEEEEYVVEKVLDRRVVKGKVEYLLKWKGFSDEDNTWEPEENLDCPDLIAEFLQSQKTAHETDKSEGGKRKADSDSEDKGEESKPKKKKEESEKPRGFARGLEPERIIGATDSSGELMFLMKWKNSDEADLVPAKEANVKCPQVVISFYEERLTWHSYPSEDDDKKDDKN
HP1β, sequence (P83916 whole entry): as above
Swi6, sequence (P40381 whole entry): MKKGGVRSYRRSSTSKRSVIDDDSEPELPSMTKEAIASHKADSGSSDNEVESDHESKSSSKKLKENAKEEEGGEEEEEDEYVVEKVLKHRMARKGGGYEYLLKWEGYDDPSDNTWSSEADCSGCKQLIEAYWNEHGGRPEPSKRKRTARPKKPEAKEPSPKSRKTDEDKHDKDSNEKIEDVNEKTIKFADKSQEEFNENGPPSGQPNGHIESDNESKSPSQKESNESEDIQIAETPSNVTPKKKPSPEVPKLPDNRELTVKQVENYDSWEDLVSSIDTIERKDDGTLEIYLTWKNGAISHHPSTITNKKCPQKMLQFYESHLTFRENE

Row | stoichiometry N (molecules per nucleosome) [1] | Kd [2] [µM] | stoichiometry N [2] | Kd [3] [µM] | stoichiometry N [3] | Kd [4] [µM] | stoichiometry N [4] | Kd [5] [µM] | stoichiometry N [5] | stoichiometry N [6] | Kd [7] [µM] | Substance | also measured
1 |  |  |  |  |  |  |  |  |  |  |  | HP1β (from UniProt P83916) | Kd (HP1β (Homo sapiens)): < 0.001 µM
2 | 4 |  |  |  |  |  |  |  |  |  |  | Swi6 (from UniProt P40381 1-328) (natural protein) | 
3 |  | 223 | 1.1 | 1.1 | 1 | 58 | 1.2 | 132 | 1.1 | 0.9 | 5.2 | hHP1β I161A (from UniProt P83916 1-185) (natural protein) | Kd [6]: 3.4 µM
4 |  |  |  |  |  |  |  |  |  | 1.1 |  | hHP1β chromo domain (CD) (domain or fragment) | 
5 | 2 | 59 | 2.1 | 1.4 | 0.9 | 22 | 1.4 | 11 | 1.9 | 1 | 1 | human HP1β wild type (hHP1β WT) (from UniProt P83916 1-185) (natural protein) | half-maximal effect in the chromatin precipitation (sedimentation) assay, 150 mM NaCl, 4°C [8]: 0.4 µM; half-maximal effect on the hydrodynamic radius of oligonucleosomes by FCS, 150 mM NaCl, 23°C [8]: 3.5 µM; Kd (H3KC9me3 tail peptide [9]): 11 µM; stoichiometry N (H3KC9me3 tail peptide [9]): 1; Kd (H3KC9me3 tail peptide [10]): 21 µM; stoichiometry N (H3KC9me3 tail peptide [10]): 1
